Experimental findings from publication PMC7430982 (Proceedings of the National Academy of Sciences of the …, 2020) are described below.

The series “cross-linking” deals with the molecule itself. The experiment in a line: cross-linking.
The series “crystal structure” concerns the molecule itself. The experiment in a line: crystal structure.
The series “cryo-EM structure” deals with the molecule itself. The experiment in a line: cryo-EM structure.

B1: NaAtm1 A527C (natural protein)
chain: MPPETATNPKDARHDGWQTLKRFLPYLWPADNAVLRRRVVGAILMVLLGKATTLALPFAYKKAVDAMTLGGGAQPALTVALAFVLAYALGRFSGVLFDNLRNIVFERVGQDATRHLAENVFARLHKLSLRFHLARRTGEVTKVIERGTKSIDTMLYFLLFNIAPTVIELTAVIVIFWLNFGLGLVTATILAVIAYVWTTRTITEWRTHLREKMNRLDGQALARAVDSLLNYETVKYFGAESREEARYASAARAYADAAVKSENSLGLLNIAQALIVNLLMAGAMAWTVYGWSQGKLTVGDLVFVNTYLTQLFRPLDMLGMVYRTIRQGLIDMAEMFRLIDTHIEVADVPNAPALVVNRPSVTFDNVVFGYDRDREILHGLSFEVAAGSRVAIVGPSGAGKSTIARLLFRFYDPWEGRILIDGQDIAHVTQTSLRAALGIVPQDSVLFNDTIGYNIAYGRDGASRAEVDAAAKGAAIADFIARLPQGYDTEVGERGLKLSGGEKQRVAIARTLVKNPPILLFDEATSCLDTRTEQDILSTMRAVASHRTTISIAHRLSTIADSDTILVLDQGRLAEQGSHLDLLRRDGLYAEMWARQAAESAEVSEAAE
modifications: disulfide between the two equivalent C527 residues of the dimer (crosslinking yield ~70%)
As for B1, in the series “cross-linking”, the crosslinking yield is around 70%.

B2: NaAtm1 E523Q (ATP-hydrolysis-deficient Walker-B mutant) (natural protein)
chain: MPPETATNPKDARHDGWQTLKRFLPYLWPADNAVLRRRVVGAILMVLLGKATTLALPFAYKKAVDAMTLGGGAQPALTVALAFVLAYALGRFSGVLFDNLRNIVFERVGQDATRHLAENVFARLHKLSLRFHLARRTGEVTKVIERGTKSIDTMLYFLLFNIAPTVIELTAVIVIFWLNFGLGLVTATILAVIAYVWTTRTITEWRTHLREKMNRLDGQALARAVDSLLNYETVKYFGAESREEARYASAARAYADAAVKSENSLGLLNIAQALIVNLLMAGAMAWTVYGWSQGKLTVGDLVFVNTYLTQLFRPLDMLGMVYRTIRQGLIDMAEMFRLIDTHIEVADVPNAPALVVNRPSVTFDNVVFGYDRDREILHGLSFEVAAGSRVAIVGPSGAGKSTIARLLFRFYDPWEGRILIDGQDIAHVTQTSLRAALGIVPQDSVLFNDTIGYNIAYGRDGASRAEVDAAAKGAAIADFIARLPQGYDTEVGERGLKLSGGEKQRVAIARTLVKNPPILLFDQATSALDTRTEQDILSTMRAVASHRTTISIAHRLSTIADSDTILVLDQGRLAEQGSHLDLLRRDGLYAEMWARQAAESAEVSEAAE
Consider B2, for which the binding result in “crystal structure” is on record as “binds”.

B3: NaAtm1 S526C (natural protein)
chain: MPPETATNPKDARHDGWQTLKRFLPYLWPADNAVLRRRVVGAILMVLLGKATTLALPFAYKKAVDAMTLGGGAQPALTVALAFVLAYALGRFSGVLFDNLRNIVFERVGQDATRHLAENVFARLHKLSLRFHLARRTGEVTKVIERGTKSIDTMLYFLLFNIAPTVIELTAVIVIFWLNFGLGLVTATILAVIAYVWTTRTITEWRTHLREKMNRLDGQALARAVDSLLNYETVKYFGAESREEARYASAARAYADAAVKSENSLGLLNIAQALIVNLLMAGAMAWTVYGWSQGKLTVGDLVFVNTYLTQLFRPLDMLGMVYRTIRQGLIDMAEMFRLIDTHIEVADVPNAPALVVNRPSVTFDNVVFGYDRDREILHGLSFEVAAGSRVAIVGPSGAGKSTIARLLFRFYDPWEGRILIDGQDIAHVTQTSLRAALGIVPQDSVLFNDTIGYNIAYGRDGASRAEVDAAAKGAAIADFIARLPQGYDTEVGERGLKLSGGEKQRVAIARTLVKNPPILLFDEATCALDTRTEQDILSTMRAVASHRTTISIAHRLSTIADSDTILVLDQGRLAEQGSHLDLLRRDGLYAEMWARQAAESAEVSEAAE
modifications: disulfide between the two equivalent C526 residues of the dimer (crosslinking yield ~70%)
Regarding B3, the crosslinking yield in the series “cross-linking” is around 70%.

B4: NaAtm1 (ABC transporter of mitochondria homolog from Novosphingobium aromaticivorans), wild type (natural protein)
chain: MPPETATNPKDARHDGWQTLKRFLPYLWPADNAVLRRRVVGAILMVLLGKATTLALPFAYKKAVDAMTLGGGAQPALTVALAFVLAYALGRFSGVLFDNLRNIVFERVGQDATRHLAENVFARLHKLSLRFHLARRTGEVTKVIERGTKSIDTMLYFLLFNIAPTVIELTAVIVIFWLNFGLGLVTATILAVIAYVWTTRTITEWRTHLREKMNRLDGQALARAVDSLLNYETVKYFGAESREEARYASAARAYADAAVKSENSLGLLNIAQALIVNLLMAGAMAWTVYGWSQGKLTVGDLVFVNTYLTQLFRPLDMLGMVYRTIRQGLIDMAEMFRLIDTHIEVADVPNAPALVVNRPSVTFDNVVFGYDRDREILHGLSFEVAAGSRVAIVGPSGAGKSTIARLLFRFYDPWEGRILIDGQDIAHVTQTSLRAALGIVPQDSVLFNDTIGYNIAYGRDGASRAEVDAAAKGAAIADFIARLPQGYDTEVGERGLKLSGGEKQRVAIARTLVKNPPILLFDEATSALDTRTEQDILSTMRAVASHRTTISIAHRLSTIADSDTILVLDQGRLAEQGSHLDLLRRDGLYAEMWARQAAESAEVSEAAE
For the protein B4, the binding result in the series “cryo-EM structure” was “binds”.
